# In publication PMC9482650, “Quantitative fragmentomics allow affinity mapping of interactomes” (Nature Communications, 2022):
# T1: NHERF3_3, Q5T2W1
# T1 sequence (Q5T2W1 238-333, limits assumed, looked up): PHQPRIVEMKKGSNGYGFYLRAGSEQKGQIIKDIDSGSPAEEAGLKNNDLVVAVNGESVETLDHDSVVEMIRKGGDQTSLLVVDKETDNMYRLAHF
# T2: APBA2_2, Q99767
# T2 sequence (Q99767 654-744, limits assumed, looked up): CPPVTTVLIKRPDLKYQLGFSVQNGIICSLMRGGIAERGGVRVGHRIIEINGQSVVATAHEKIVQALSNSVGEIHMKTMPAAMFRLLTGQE
# T3: LIN7C, Q9NUP9
# T3 sequence (Q9NUP9 88-185, limits assumed, looked up): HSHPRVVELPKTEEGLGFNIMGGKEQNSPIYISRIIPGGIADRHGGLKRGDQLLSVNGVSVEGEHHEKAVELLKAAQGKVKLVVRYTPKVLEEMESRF
# T4: LIN7B, Q9HAP6
# T4 sequence (Q9HAP6 88-185, limits assumed, looked up): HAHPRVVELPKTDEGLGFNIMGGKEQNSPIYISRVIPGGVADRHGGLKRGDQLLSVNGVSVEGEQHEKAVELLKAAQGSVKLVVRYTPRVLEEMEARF
# T5: APBA3_1, O96018
# T5 sequence (O96018 389-490, limits assumed, looked up): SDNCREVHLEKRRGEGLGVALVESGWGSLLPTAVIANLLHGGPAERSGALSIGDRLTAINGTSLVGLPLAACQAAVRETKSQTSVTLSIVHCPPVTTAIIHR
# T6: GRIP1_4, Q9Y3R0
# T6 sequence (Q9Y3R0 467-571, limits assumed, looked up): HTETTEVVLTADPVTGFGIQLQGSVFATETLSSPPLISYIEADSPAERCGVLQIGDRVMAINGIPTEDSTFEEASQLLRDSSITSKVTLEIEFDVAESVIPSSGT
# T7: MPDZ_5, O75970
# T7 sequence (O75970 695-796, limits assumed, looked up): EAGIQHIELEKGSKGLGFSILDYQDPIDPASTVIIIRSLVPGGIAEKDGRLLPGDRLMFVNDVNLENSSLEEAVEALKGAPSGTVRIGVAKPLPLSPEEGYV
# T8: PDZD7_3, Q9H5P4
# T8 sequence (Q9H5P4 857-944, limits assumed, looked up): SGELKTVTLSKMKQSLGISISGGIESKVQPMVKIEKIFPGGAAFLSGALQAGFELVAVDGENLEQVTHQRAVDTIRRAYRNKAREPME
# T9: HTRA3, P83110
# T9 sequence (P83110 354-453, limits assumed, looked up): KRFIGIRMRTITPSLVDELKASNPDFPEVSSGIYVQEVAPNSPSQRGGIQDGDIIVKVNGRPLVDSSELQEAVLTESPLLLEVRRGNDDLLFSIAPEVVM
# Legend:
# Assay in all cases: holdup assay
# Parameters in all cases: key: below the threshold = too weak to quantify, mostly under pKd 3.1 to 4
# Details in all cases: plain residues with an end cap or a label only (N-terminal biotin on a linker: ado-ado)
# NHERF3_3, Q5T2W1 = molecular target: T1, NHERF3_3, Q5T2W1
# DLG4_2, P78352 = molecular target: DLG4_2, P78352
# APBA2_2, Q99767 = molecular target: T2, APBA2_2, Q99767
# GRIP2_7, Q9C0E4 = molecular target: GRIP2_7, Q9C0E4
# LIN7C, Q9NUP9 = molecular target: T3, LIN7C, Q9NUP9
# Inadl_10, Q8NI35 = molecular target: Inadl_10, Q8NI35
# LIN7B, Q9HAP6 = molecular target: T4, LIN7B, Q9HAP6
# APBA3_1, O96018 = molecular target: T5, APBA3_1, O96018
# LDB3, O75112 = molecular target: LDB3, O75112
# GRIP1_4, Q9Y3R0 = molecular target: T6, GRIP1_4, Q9Y3R0
# Inadl_5, Q8NI35 = molecular target: Inadl_5, Q8NI35
# MPDZ_5, O75970 = molecular target: T7, MPDZ_5, O75970
# PDLIM1, O00151 = molecular target: PDLIM1, O00151
# LAP2, Q96RT1 = molecular target: LAP2, Q96RT1
# DLG1_1, Q12959 = molecular target: DLG1_1, Q12959
# AHNAK1, Q09666 = molecular target: AHNAK1, Q09666
# MAGI2_3, Q86UL8 = molecular target: MAGI2_3, Q86UL8
# PDZRN4_1, Q6ZMN7 = molecular target: PDZRN4_1, Q6ZMN7
# LNX1_3, Q8TBB1 = molecular target: LNX1_3, Q8TBB1
# IL16_4, Q14005 = molecular target: IL16_4, Q14005
# ARHGEF12, Q9NZN5-2 = molecular target: ARHGEF12, Q9NZN5-2
# MAGI2_4, Q86UL8 = molecular target: MAGI2_4, Q86UL8
# PDZD7_3, Q9H5P4 = molecular target: T8, PDZD7_3, Q9H5P4
# HTRA3, P83110 = molecular target: T9, HTRA3, P83110
# HTRA1, Q92743 = molecular target: HTRA1, Q92743
# IL16_1, Q14005 = molecular target: IL16_1, Q14005
# FRMPD3, Q5JV73 = molecular target: FRMPD3, Q5JV73
# DLG2_2, Q15700 = molecular target: DLG2_2, Q15700
# DLG4_3, P78352 = molecular target: DLG4_3, P78352
# DLG4_3, P78352, sequence (P78352 306-403): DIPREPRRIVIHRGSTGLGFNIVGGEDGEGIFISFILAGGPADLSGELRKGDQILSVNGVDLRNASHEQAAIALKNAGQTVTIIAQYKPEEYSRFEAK
# IL16_1, Q14005, sequence (Q14005 210-306): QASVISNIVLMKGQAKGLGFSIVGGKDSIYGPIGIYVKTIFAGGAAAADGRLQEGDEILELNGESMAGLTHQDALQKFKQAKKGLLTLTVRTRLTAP
# MAGI2_4, Q86UL8, sequence (Q86UL8 772-865): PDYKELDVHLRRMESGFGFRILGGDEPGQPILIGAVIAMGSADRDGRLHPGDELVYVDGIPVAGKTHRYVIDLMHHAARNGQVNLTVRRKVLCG
# DLG4_2, P78352, sequence (P78352 155-259): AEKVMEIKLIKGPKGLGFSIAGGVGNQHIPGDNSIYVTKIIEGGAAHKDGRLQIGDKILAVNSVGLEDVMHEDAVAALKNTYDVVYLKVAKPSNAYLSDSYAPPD
# DLG2_2, Q15700, sequence (Q15700 189-283): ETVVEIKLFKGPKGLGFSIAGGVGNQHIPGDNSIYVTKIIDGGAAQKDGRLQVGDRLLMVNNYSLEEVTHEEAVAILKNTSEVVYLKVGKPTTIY
# Inadl_10, Q8NI35, sequence (Q8NI35 1673-1763): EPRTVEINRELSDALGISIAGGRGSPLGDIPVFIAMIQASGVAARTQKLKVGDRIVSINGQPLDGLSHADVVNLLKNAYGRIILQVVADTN
# IL16_4, Q14005, sequence (Q14005 1229-1329): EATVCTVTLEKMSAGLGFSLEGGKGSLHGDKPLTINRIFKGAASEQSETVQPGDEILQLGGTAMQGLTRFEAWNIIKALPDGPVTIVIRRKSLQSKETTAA
# GRIP2_7, Q9C0E4, sequence (Q9C0E4 934-1023): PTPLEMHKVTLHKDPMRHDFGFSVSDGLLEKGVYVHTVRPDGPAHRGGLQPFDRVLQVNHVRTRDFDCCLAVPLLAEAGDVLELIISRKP
# LDB3, O75112, sequence (O75112 1-94): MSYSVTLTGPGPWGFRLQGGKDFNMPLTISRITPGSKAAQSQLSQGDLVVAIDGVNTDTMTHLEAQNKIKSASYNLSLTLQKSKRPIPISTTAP
# Inadl_5, Q8NI35, sequence (Q8NI35 673-780): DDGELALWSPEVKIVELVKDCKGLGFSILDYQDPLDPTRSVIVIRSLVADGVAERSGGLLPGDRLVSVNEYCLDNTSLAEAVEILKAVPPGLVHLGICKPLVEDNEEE
# MAGI2_3, Q86UL8, sequence (Q86UL8 600-682): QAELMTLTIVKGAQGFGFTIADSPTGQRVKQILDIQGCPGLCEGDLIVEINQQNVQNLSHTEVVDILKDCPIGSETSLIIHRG
# LNX1_3, Q8TBB1, sequence (Q8TBB1 500-596): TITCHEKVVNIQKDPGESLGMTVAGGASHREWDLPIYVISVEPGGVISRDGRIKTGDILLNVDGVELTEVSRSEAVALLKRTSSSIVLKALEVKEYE
# ARHGEF12, Q9NZN5-2, sequence (Q9NZN5 other isoform, or with tags, fused parts or gaps): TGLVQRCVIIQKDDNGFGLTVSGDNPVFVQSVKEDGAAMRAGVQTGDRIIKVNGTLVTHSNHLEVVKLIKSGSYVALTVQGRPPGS
# FRMPD3, Q5JV73, sequence (Q5JV73 12-100): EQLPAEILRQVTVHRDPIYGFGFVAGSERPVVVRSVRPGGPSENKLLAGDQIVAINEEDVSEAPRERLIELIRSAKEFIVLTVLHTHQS
# PDLIM1, O00151, sequence (O00151 1-87): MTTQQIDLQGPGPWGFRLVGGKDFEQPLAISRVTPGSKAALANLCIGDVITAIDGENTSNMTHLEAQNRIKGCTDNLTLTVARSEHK
# PDZRN4_1, Q6ZMN7, sequence (Q6ZMN7 213-318): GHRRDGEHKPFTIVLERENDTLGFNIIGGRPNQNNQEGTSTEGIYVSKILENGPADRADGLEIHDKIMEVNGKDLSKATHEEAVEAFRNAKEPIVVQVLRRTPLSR
# LAP2, Q96RT1, sequence (Q96RT1 other isoform, or with tags, fused parts or gaps): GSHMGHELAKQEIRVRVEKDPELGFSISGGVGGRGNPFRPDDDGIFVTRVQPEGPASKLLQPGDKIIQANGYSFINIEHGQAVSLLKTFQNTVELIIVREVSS
# AHNAK1, Q09666, sequence (Q09666 4-100): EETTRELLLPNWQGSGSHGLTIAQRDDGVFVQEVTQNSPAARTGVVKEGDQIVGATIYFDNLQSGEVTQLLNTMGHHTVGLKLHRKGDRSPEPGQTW
# HTRA1, Q92743, sequence (Q92743 360-477): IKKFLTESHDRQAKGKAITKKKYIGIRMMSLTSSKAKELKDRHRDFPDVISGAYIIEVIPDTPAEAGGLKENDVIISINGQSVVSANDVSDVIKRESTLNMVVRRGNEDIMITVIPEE
Binder,"pKd (NHERF3_3, Q5T2W1)","pKd (DLG4_2, P78352)","pKd (APBA2_2, Q99767)","pKd (GRIP2_7, Q9C0E4)","pKd (LIN7C, Q9NUP9)","pKd (Inadl_10, Q8NI35)","pKd (LIN7B, Q9HAP6)","pKd (APBA3_1, O96018)","pKd (LDB3, O75112)","pKd (GRIP1_4, Q9Y3R0)","pKd (Inadl_5, Q8NI35)","pKd (MPDZ_5, O75970)","pKd (PDLIM1, O00151)","pKd (LAP2, Q96RT1)","pKd (DLG1_1, Q12959)","pKd (AHNAK1, Q09666)","pKd (MAGI2_3, Q86UL8)","pKd (PDZRN4_1, Q6ZMN7)","pKd (LNX1_3, Q8TBB1)","pKd (IL16_4, Q14005)",further results
"NVYGTESVKI [GRIA3, P42263]",below the threshold,below the threshold,below the threshold,below the threshold,below the threshold,below the threshold,below the threshold,below the threshold,below the threshold,below the threshold,below the threshold,below the threshold,below the threshold,below the threshold,below the threshold,below the threshold,below the threshold,below the threshold,below the threshold,below the threshold,"pKd (ARHGEF12, Q9NZN5-2): below the threshold; pKd (MAGI2_4, Q86UL8): below the threshold; pKd (PDZD7_3, Q9H5P4): below the threshold; pKd (HTRA3, P83110): below the threshold; pKd (HTRA1, Q92743): 3.98; pKd (IL16_1, Q14005): below the threshold; pKd (FRMPD3, Q5JV73): below the threshold; pKd (DLG2_2, Q15700): below the threshold; pKd (DLG4_3, P78352): below the threshold"
"NASRTRITFV [MCM7, P33993]",3.53,5.12,below the threshold,4.27,below the threshold,below the threshold,3.9,below the threshold,below the threshold,below the threshold,4.34,4.37,below the threshold,3.49,4.83,below the threshold,4.99,below the threshold,below the threshold,3.67,"pKd (ARHGEF12, Q9NZN5-2): 4.46; pKd (MAGI2_4, Q86UL8): 3.82; pKd (PDZD7_3, Q9H5P4): 5.26; pKd (HTRA3, P83110): 4.51; pKd (HTRA1, Q92743): 4.99; pKd (IL16_1, Q14005): below the threshold; pKd (FRMPD3, Q5JV73): below the threshold; pKd (DLG2_2, Q15700): 4.73; pKd (DLG4_3, P78352): 4.33"
"SRPRPDDLEI [GJA1, P17302]",below the threshold,below the threshold,below the threshold,below the threshold,below the threshold,below the threshold,below the threshold,below the threshold,below the threshold,below the threshold,below the threshold,below the threshold,below the threshold,below the threshold,below the threshold,below the threshold,below the threshold,below the threshold,below the threshold,below the threshold,"pKd (ARHGEF12, Q9NZN5-2): below the threshold; pKd (MAGI2_4, Q86UL8): below the threshold; pKd (PDZD7_3, Q9H5P4): below the threshold; pKd (HTRA3, P83110): below the threshold; pKd (HTRA1, Q92743): below the threshold; pKd (IL16_1, Q14005): below the threshold; pKd (FRMPD3, Q5JV73): below the threshold; pKd (DLG2_2, Q15700): below the threshold; pKd (DLG4_3, P78352): below the threshold"
"ANGLMQTSKL [SSTR5, P35346]",3.81,below the threshold,below the threshold,below the threshold,below the threshold,below the threshold,3.47,below the threshold,below the threshold,below the threshold,below the threshold,below the threshold,below the threshold,below the threshold,below the threshold,below the threshold,3.48,below the threshold,below the threshold,3.84,"pKd (ARHGEF12, Q9NZN5-2): 4.62; pKd (MAGI2_4, Q86UL8): below the threshold; pKd (PDZD7_3, Q9H5P4): 4.22; pKd (HTRA3, P83110): below the threshold; pKd (HTRA1, Q92743): below the threshold; pKd (IL16_1, Q14005): below the threshold; pKd (FRMPD3, Q5JV73): below the threshold; pKd (DLG2_2, Q15700): below the threshold; pKd (DLG4_3, P78352): below the threshold"
"ETSLVKGIDI [DENND5A, Q6IQ26]",below the threshold,below the threshold,below the threshold,3.58,below the threshold,below the threshold,below the threshold,below the threshold,3.51,below the threshold,below the threshold,below the threshold,below the threshold,3.57,3.67,below the threshold,below the threshold,below the threshold,below the threshold,below the threshold,"pKd (ARHGEF12, Q9NZN5-2): 4.17; pKd (MAGI2_4, Q86UL8): 3.66; pKd (PDZD7_3, Q9H5P4): below the threshold; pKd (HTRA3, P83110): 3.91; pKd (HTRA1, Q92743): 3.6; pKd (IL16_1, Q14005): below the threshold; pKd (FRMPD3, Q5JV73): below the threshold; pKd (DLG2_2, Q15700): below the threshold; pKd (DLG4_3, P78352): below the threshold"
